According to PMC9273970, “Mambalgin-2 Inhibits Lung Adenocarcinoma Growth and Migration by Selective Interaction With ASIC1/α-ENaC/γ-ENaC Heterotrimer” (Frontiers in Oncology, 2022):

Legend:
[1] = biological target: ASIC1a subunit (acid-sensing ion channel 1a) (human (endogenous in A549))
[2] = biological target: human heteromeric ASIC1a/α-ENAC/γ-ENAC channel (human, UniProt P78348 1-528; P37088 1-669; P51170 1-649); assay: cell-based or functional assay
Sequence of human heteromeric ASIC1a/α-ENAC/γ-ENAC channel (P78348 whole entry, chain 1 of 3): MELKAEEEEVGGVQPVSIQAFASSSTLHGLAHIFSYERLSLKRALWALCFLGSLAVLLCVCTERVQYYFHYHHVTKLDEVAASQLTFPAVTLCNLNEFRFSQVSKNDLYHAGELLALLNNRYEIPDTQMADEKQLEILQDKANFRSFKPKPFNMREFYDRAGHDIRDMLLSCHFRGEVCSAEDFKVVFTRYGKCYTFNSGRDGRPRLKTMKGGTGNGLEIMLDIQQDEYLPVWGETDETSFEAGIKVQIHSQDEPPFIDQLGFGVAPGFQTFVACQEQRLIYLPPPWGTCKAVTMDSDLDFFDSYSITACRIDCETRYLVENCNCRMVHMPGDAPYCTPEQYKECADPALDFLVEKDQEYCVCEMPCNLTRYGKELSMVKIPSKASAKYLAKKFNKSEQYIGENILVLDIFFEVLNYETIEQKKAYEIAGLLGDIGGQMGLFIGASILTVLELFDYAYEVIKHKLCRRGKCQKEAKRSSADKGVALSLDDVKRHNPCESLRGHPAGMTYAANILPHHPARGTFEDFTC
Sequence of human heteromeric ASIC1a/α-ENAC/γ-ENAC channel (P37088 whole entry, chain 2 of 3): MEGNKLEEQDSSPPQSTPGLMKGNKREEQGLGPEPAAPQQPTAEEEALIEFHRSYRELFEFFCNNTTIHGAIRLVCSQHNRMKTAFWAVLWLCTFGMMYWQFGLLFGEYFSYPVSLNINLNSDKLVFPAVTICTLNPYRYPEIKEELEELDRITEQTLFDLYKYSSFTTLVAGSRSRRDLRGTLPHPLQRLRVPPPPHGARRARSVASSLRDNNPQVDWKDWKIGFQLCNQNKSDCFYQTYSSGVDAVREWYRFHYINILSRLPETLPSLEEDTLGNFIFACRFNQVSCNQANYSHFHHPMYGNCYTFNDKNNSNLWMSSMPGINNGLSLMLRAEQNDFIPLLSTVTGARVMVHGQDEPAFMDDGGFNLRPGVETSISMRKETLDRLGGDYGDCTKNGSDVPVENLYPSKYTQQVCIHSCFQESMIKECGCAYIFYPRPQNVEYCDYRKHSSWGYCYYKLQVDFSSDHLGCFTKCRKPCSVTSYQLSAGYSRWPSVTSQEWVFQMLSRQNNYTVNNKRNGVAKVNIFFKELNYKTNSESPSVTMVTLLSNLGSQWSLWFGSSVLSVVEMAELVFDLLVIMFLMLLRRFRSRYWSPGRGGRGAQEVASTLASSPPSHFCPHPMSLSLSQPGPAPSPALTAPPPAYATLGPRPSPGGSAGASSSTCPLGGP
Sequence of human heteromeric ASIC1a/α-ENAC/γ-ENAC channel (P51170 whole entry, chain 3 of 3): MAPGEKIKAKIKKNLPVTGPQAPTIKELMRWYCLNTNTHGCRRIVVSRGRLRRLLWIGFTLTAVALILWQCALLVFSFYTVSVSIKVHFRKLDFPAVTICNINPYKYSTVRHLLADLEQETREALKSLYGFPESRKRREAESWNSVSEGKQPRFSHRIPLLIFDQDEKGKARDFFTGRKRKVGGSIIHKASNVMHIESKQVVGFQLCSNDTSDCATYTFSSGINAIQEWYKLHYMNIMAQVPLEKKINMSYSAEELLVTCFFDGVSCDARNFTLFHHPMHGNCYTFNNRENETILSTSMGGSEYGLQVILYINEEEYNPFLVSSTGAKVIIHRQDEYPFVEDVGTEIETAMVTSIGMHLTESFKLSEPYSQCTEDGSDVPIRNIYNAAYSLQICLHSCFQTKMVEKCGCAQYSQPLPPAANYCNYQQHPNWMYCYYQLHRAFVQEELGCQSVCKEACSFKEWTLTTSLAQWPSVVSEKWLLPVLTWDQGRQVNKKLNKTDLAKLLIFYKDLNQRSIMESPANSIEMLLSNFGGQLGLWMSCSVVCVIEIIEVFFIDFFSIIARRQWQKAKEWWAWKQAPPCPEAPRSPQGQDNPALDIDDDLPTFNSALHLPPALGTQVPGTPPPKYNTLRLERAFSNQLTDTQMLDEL

Sequence of ASIC1a subunit (acid-sensing ion channel 1a) (human (endogenous in A549)) (P78348 whole entry): as the sequence (P78348 whole entry, chain 1 of 3) above

B1: recombinant mambalgin-2 from Dendroaspis polylepis (natural protein)
chain: LKCFQHGKVVTCHRDMKFCYHNTGMPFRNLKLILQGCSSSCSETENNKCCSTDRCNK
- inhibition of currents evoked by a pH drop from 7.4 to 5.0 in X. laevis oocytes expressing homomeric hASIC1a (two-electrode voltage clamp, mambalgin-2 0–10 μM, 15 s pre-incubation), IC50 [1]: 0.59 μM
- inhibition of currents evoked by a pH drop from 7.4 to 5.0 in X. laevis oocytes expressing hASIC1a/α-ENAC/γ-ENAC (two-electrode voltage clamp, mambalgin-2 0–10 μM, 15 s pre-incubation), IC50 [2]: 79 nM
